Experimental data: US20170298395A1, “AUTOTROPHIC HYDROGEN BACTERIA AND USES THEREOF” (Ohio State Innovation Foundation, priority 2011, published 2017)
Like-named read-outs stand apart in the source and are kept apart here.

How the values were obtained:
cbbL transcript = format: cell-based, Ralstonia eutropha; details: chemoautotrophic growth
cbb promoter = format: cell-based, Ralstonia eutropha
RubisCO = format: cell-based, Ralstonia eutropha
[1] = test system: Ralstonia eutropha cbbR deletion reporter strain; format: cell-based; details: chemoautotrophic, CO2/H2/O2 atmosphere, minimal media
R. eutropha = assay: Relative promoter strength / gene expression in R. eutropha; format: cell-based; details: autotrophic growth conditions
Description: The lac and tac promoters are E. coli promoters, but have been used to drive gene expression of other genes in R. eutropha. The pha promoter is a native R. eutropha promoter and drives expression of genes involved in polyhydroxybutyrate (PHB) production. The relative strength of these promoters in R. eutropha was determined. The pha promoter was 1.2 times stronger than the lac promoter and that the tac promoter was 2.1 times stronger than the lac promoter (1). The cbbM and cbbL promoters were also examined. The cbbM and cbbL promoters are strong promoters which drive expression of the genes that encode for RubisCO in Rhodosporilium rubrum/Rhodobacter sphaeroides/Rhodobacter capsulatus and R. eutropha, respectively. […] Each promoter was placed in the vector pBBR1MCS3, and the ability of these gene expression vectors was assessed (Table 4). The pBBR1 vector has Accession No. U02374 (4707 bp). The pBBR1MCS-3 vector has Accession No. U25059 (5228 bp). Plasmid pRPS-MCS3 (SEQ ID NO: 36) (see Journal of Molecular Biology, 331(3): 557-569 (2003)) derives from plasmid pBBR1-MCS3.
Vectors were made with the native cbbL and constitutive cbbL promoters. The cbbL promoter is native to R. eutropha and is highly expressed and regulated. […] To construct strains with a constitutive cbbL promoter, the lac promoter within the pBBR1MCS-3 vector was removed and replaced by the constitutive cbbL promoter. […]

[2] = Table 9, chemoautotrophic growth conditions
[3] = Table 12, chemoautotrophic (induced) growth
[4] = Table 12, chemoheterotrophic (repressed) growth

Row | Molecule | increase in transcription over wild type CbbR (RT-PCR, FIG. 22) (cbbL transcript; 26 cycles of PCR) [fold] | increase in cbb transcript over wild type CbbR (RT-PCR, FIG. 21) (cbbL transcript; OD 0.2) [fold] | Chemoautotrophic β-galactosidase activity (cbb promoter; [2]) | Chemoautotrophic β-galactosidase activity (cbb promoter; [3]) | Chemoheterotrophic β-galactosidase activity (cbb promoter; [4]) | level of RubisCO relative to wild-type CbbR (RubisCO; CA growth conditions) [fold] | Chemoautotrophic RubisCO activity (RubisCO; [2]) | Chemoautotrophic RubisCO activity (RubisCO; [3]) | Chemoheterotrophic RubisCO activity (RubisCO; [4]) | Doubling Time [1] [h] | increase in gene expression (R. eutropha) [fold]
1 | D144N (protein) MSSFLRALTLRQLQIFVTVARHASFVRAAEELHLTQPAVSMQVKQLESVVGMALFERVKGQLTLTEPGDRLLHHASRILGEVKDAEEGLQAVKDVEQGSITIGLISTSKYFAPKLLAGFTALHPGVDLRIAEGNRETLLRLLQNNAIDLALMGRPPRELDAVSEPIAAHPHVLVASPRHPLHDAKGFDLQELRHETFLLREPGSGTRTVAEYMFRDHLFTPAKVITLGSNETIKQAVMAGMGISLLSLHTLGLELRTGEIGLLDVAGTPIERIWHVAHMSSKRLSPASESCRAYLLEHTAEFLGREYGGLMPGRRVA | 1.8 | 2.4 | 6932 nmol/min/mg of protein | 6932 nmol/min/mg of protein | 809 nmol/min/mg of protein | 2.2 | 188 nmol/min/mg of protein | 314 nmol/min/mg of protein | 26 nmol/min/mg of protein | 6.8 | 
2 | constitutive cbbL promoter: constitutive R. eutropha cbbL promoter, SEQ ID NO: 30 (nucleic acid) DNA: GCAACTGGCGAAGGGTAAGGGCGCGCAGGAAGGACGACATGGGCGGTTGGGGGCGGCTTTGGATGGTCCCGTGATGTGCAGCTTGGTCCGCACTTAAGGGATTGCTTATACAGGGGCTAAGAATATCTGAATTGACATTATGTGGGTGGGCTTATATAATTGCATCAACGCAGCAGCCAAGACGCTCAACCACGCAAGGAGACAAGC |  |  |  |  |  |  |  |  |  |  | 2.4
